# Reference: publication doi:10.64898/2025.12.24.696318, “TRAF6 coiled-coil domain mediates its trimerization” (bioRxiv, 2025)
# B1: His6-THROM-TRAF6-CC (human TRAF6 coiled-coil domain, residues 288-348, with N-terminal His6 tag and thrombin cleavage site) (domain or fragment, UniProt Q9Y4K3 288-348, looked up)
# chain: YISEVRNFQETIHQLEGRLVRQDHQIRELTAKMETQSMYVSELKRTIRTLEDKVAEIEAQQ
# notes: TRAF6, human, UniProt Q9Y4K3, coiled-coil domain, residues Y288-Q348; Cloned in pET28a between NdeI and XhoI; a thrombin cleavage site lies between the His6 tag and the domain; Printed mass of the tagged monomer is 9.61 kDa; also called His6-TRAF6-CC; hexahistidine-tagged TRAF6-CC; source: E. coli BL21-CodonPlus (DE3) RIPL, purified (Ni-NTA, SEC); not shown: His6, N-terminal, kept
# B2: tagless TRAF6-CC (human TRAF6 coiled-coil domain, residues 288-348, His6 tag removed by thrombin) (domain or fragment, UniProt Q9Y4K3 288-348, looked up)
# chain: B1 chain
# notes: TRAF6, human, UniProt Q9Y4K3, coiled-coil domain, residues Y288-Q348; Made from m1 by bovine thrombin; source: E. coli BL21-CodonPlus (DE3) RIPL, purified (Ni-NTA, thrombin cleavage, reverse Ni-NTA, SEC); not shown: His6, N-terminal, cleaved
# Molecular target: the molecule itself
# Experiment: SEC-MALS; Superdex 200 Increase 10/300; 20 mM Tris-HCl pH 8.0, 150 mM NaCl; 0.5 mL/min; His6-TRAF6-CC at 1 and 6.57 mg/ml, tagless TRAF6-CC at 0.934 and 1.57 mg/ml; calibrated with BSA
row,Protein,stoichiometry N
1,B1,3
2,B2,3
